Reference: publication PMC10681739, “High-throughput data and modeling reveal insights into the mechanisms of cooperative DNA-binding by transcription factor proteins”

Molecular target: RUNX1 (Homo sapiens, UniProt Q01196)
Assay: gcPBM; 2 nM RUNX1
Conditions: tags: N-terminal GST (pDEST15), kept (PMC6008103); label: surface-attached array probe

RUNX1, sequence (Q01196 whole entry): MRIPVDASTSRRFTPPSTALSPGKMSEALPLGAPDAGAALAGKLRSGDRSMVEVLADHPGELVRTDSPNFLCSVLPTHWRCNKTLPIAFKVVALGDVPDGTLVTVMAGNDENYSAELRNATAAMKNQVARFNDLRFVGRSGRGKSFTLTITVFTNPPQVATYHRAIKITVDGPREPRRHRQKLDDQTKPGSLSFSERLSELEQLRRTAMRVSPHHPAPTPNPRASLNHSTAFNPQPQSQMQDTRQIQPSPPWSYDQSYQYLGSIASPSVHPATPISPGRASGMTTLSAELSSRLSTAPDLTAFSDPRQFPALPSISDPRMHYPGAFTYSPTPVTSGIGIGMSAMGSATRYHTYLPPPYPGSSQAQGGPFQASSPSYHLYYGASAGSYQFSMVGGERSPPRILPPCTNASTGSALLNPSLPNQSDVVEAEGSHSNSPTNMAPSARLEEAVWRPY

Row | Binder | binding signal
1 | Table S3 B row 991 (dsDNA) DNA 1: TCCCTTACCTTCATGCTGCCACCAAACCACCAAACC DNA 2: GGTTTGGTGGTTTGGTGGCAGCATGAAGGTAAGGGA | 2540 PBM fluorescence, median of replicate spots
2 | Table S3 B row 1201 (dsDNA) DNA 1: GTGGGCTGTGGTTAGGAGACATGAAGGAGAATGCCA DNA 2: TGGCATTCTCCTTCATGTCTCCTAACCACAGCCCAC | 4150 PBM fluorescence, median of replicate spots
3 | Table S3 B row 3109 (dsDNA) DNA 1: ACTCCACCTACCCACAAAACGCACTGCCTCAGAAGC DNA 2: GCTTCTGAGGCAGTGCGTTTTGTGGGTAGGTGGAGT | 2010 PBM fluorescence, median of replicate spots
4 | Table S3 B row 2775 (dsDNA) DNA 1: CCTGTTTCGTGCCATCTGCCCTTCCTTTGTGGTCAA DNA 2: TTGACCACAAAGGAAGGGCAGATGGCACGAAACAGG | 2610 PBM fluorescence, median of replicate spots
5 | Table S3 B row 1934 (dsDNA) DNA 1: TCCTCCCCCAACCGCACCCTCAGCTTCATGTTTCAG DNA 2: CTGAAACATGAAGCTGAGGGTGCGGTTGGGGGAGGA | 3950 PBM fluorescence, median of replicate spots
6 | Table S3 B row 1484 (dsDNA) DNA 1: GTGAAGACCGCAAGTTGGGGCAGATGGCTCCCGACT DNA 2: AGTCGGGAGCCATCTGCCCCAACTTGCGGTCTTCAC | 3440 PBM fluorescence, median of replicate spots
7 | Table S3 B row 2668 (dsDNA) DNA 1: TACAGTCTCTGTGGTTTACTGAGAGGAGGTGGTTCT DNA 2: AGAACCACCTCCTCTCAGTAAACCACAGAGACTGTA | 2160 PBM fluorescence, median of replicate spots
8 | Table S3 B row 708 (dsDNA) DNA 1: CTCCTGCGGTTGCCAGGCAACCGGCCCCGGGAGTTG DNA 2: CAACTCCCGGGGCCGGTTGCCTGGCAACCGCAGGAG | 3720 PBM fluorescence, median of replicate spots
9 | Table S3 B row 3800 (dsDNA) DNA 1: GACCCAGATACCACACCTACCCTGCTGCCTTTTCTA DNA 2: TAGAAAAGGCAGCAGGGTAGGTGTGGTATCTGGGTC | 1960 PBM fluorescence, median of replicate spots
10 | Table S3 B row 2350 (dsDNA) DNA 1: CCTGTCTTGTGGTTAAGTCAAGGCAGGCAATGCTTT DNA 2: AAAGCATTGCCTGCCTTGACTTAACCACAAGACAGG | 5190 PBM fluorescence, median of replicate spots
11 | Table S3 B row 2453 (dsDNA) DNA 1: GCCCTGTGGTTTTCTGAGGCCCCCGAGGAGGAGGTG DNA 2: CACCTCCTCCTCGGGGGCCTCAGAAAACCACAGGGC | 5060 PBM fluorescence, median of replicate spots
12 | Table S3 B row 2861 (dsDNA) DNA 1: ACGATCCAACCGCATTCACCCCGTAAGCCGCTTCCA DNA 2: TGGAAGCGGCTTACGGGGTGAATGCGGTTGGATCGT | 4500 PBM fluorescence, median of replicate spots
13 | Table S3 B row 1984 (dsDNA) DNA 1: TAAAACCAAACCACAGATGACACATTGCCTTTCCAC DNA 2: GTGGAAAGGCAATGTGTCATCTGTGGTTTGGTTTTA | 2350 PBM fluorescence, median of replicate spots
14 | Table S3 B row 2319 (dsDNA) DNA 1: CCCCGGCAGAAACCGCACCCCACTCCCCATAGCCAC DNA 2: GTGGCTATGGGGAGTGGGGTGCGGTTTCTGCCGGGG | 4670 PBM fluorescence, median of replicate spots
15 | Table S3 B row 1118 (dsDNA) DNA 1: CTCCCACCATCCACCGCAGCCACTTTCGCCCGTCCT DNA 2: AGGACGGGCGAAAGTGGCTGCGGTGGATGGTGGGAG | 3290 PBM fluorescence, median of replicate spots
16 | Table S3 B row 1676 (dsDNA) DNA 1: GTAAAATGCGGTCGGGTAGAAACCTACTTTCGGTCC DNA 2: GGACCGAAAGTAGGTTTCTACCCGACCGCATTTTAC | 2480 PBM fluorescence, median of replicate spots
17 | Table S3 B row 1822 (dsDNA) DNA 1: TCCTATTTTTACCGCAGTTGCACAGGCAATGAGGCG DNA 2: CGCCTCATTGCCTGTGCAACTGCGGTAAAAATAGGA | 3180 PBM fluorescence, median of replicate spots
18 | Table S3 B row 934 (dsDNA) DNA 1: TCAGAACCGCAGACGTGGCCCTGCGTGGCTTCAGGC DNA 2: GCCTGAAGCCACGCAGGGCCACGTCTGCGGTTCTGA | 4860 PBM fluorescence, median of replicate spots
19 | Table S3 B row 878 (dsDNA) DNA 1: CCCTTTGTGGTCACAAAAACATGTCCTAGTTGAGAT DNA 2: ATCTCAACTAGGACATGTTTTTGTGACCACAAAGGG | 3830 PBM fluorescence, median of replicate spots
20 | Table S3 B row 3703 (dsDNA) DNA 1: GGAACACTGCGGTCGGGGCGAGGGAGCTGCCGGGGA DNA 2: TCCCCGGCAGCTCCCTCGCCCCGACCGCAGTGTTCC | 4100 PBM fluorescence, median of replicate spots
21 | Table S3 B row 2615 (dsDNA) DNA 1: ACCCCCCAACCACAAGGCCCGTTTGCTGCCTCCCCA DNA 2: TGGGGAGGCAGCAAACGGGCCTTGTGGTTGGGGGGT | 2690 PBM fluorescence, median of replicate spots
22 | Table S3 B row 2632 (dsDNA) DNA 1: TCTGTTTTGTGGGTTCCCTGCCCCCCTTCGGCCTTT DNA 2: AAAGGCCGAAGGGGGGCAGGGAACCCACAAAACAGA | 2250 PBM fluorescence, median of replicate spots
23 | Table S3 B row 808 (dsDNA) DNA 1: TGTGTTAGTGGTTTTCTCTTACGGCAGGCAGTGGGC DNA 2: GCCCACTGCCTGCCGTAAGAGAAAACCACTAACACA | 2040 PBM fluorescence, median of replicate spots

Row | Binder | binding signal
24 | Table S3 B row 1939 (dsDNA) DNA 1: TTGGTTCTGTGGTTTCAGGTGTGAGTTCCAGTGTGC DNA 2: GCACACTGGAACTCACACCTGAAACCACAGAACCAA | 2910 PBM fluorescence, median of replicate spots
25 | Table S3 B row 2767 (dsDNA) DNA 1: CTTGCGGTCCCATCTTGCTTTTTTCTTGCGCTTTCC DNA 2: GGAAAGCGCAAGAAAAAAGCAAGATGGGACCGCAAG | 2370 PBM fluorescence, median of replicate spots
26 | Table S3 B row 1232 (dsDNA) DNA 1: CTCCTCTGTGGTCAGCCATCAATTCATCCCAGCCCG DNA 2: CGGGCTGGGATGAATTGATGGCTGACCACAGAGGAG | 4200 PBM fluorescence, median of replicate spots
27 | Table S3 B row 3999 (dsDNA) DNA 1: ATGGAAATGTGGTTAAGAACTCCCTCTTTTACTAGA DNA 2: TCTAGTAAAAGAGGGAGTTCTTAACCACATTTCCAT | 2760 PBM fluorescence, median of replicate spots
28 | Table S3 B row 1304 (dsDNA) DNA 1: TCTGCTGCTTCTGTGGTTTACGGAATTTGTAACCCT DNA 2: AGGGTTACAAATTCCGTAAACCACAGAAGCAGCAGA | 5370 PBM fluorescence, median of replicate spots
29 | Table S3 B row 2151 (dsDNA) DNA 1: CTAAGGCTGTGGTTTGTACCCTAGCAGCAAAGGCAG DNA 2: CTGCCTTTGCTGCTAGGGTACAAACCACAGCCTTAG | 2080 PBM fluorescence, median of replicate spots
30 | Table S3 B row 4026 (dsDNA) DNA 1: CCTCCTGTGGTTAGTTCCTGCCCGATCAGGCAGGAG DNA 2: CTCCTGCCTGATCGGGCAGGAACTAACCACAGGAGG | 4260 PBM fluorescence, median of replicate spots
31 | Table S3 B row 244 (dsDNA) DNA 1: GGTCTTTTCTGTGGTTCTGTCACCTCCTTTGTAAGT DNA 2: ACTTACAAAGGAGGTGACAGAACCACAGAAAAGACC | 2300 PBM fluorescence, median of replicate spots
32 | Table S3 B row 1841 (dsDNA) DNA 1: CTGCCCATCGCGGTTAACTTTTGCGCCTCCTTAAAG DNA 2: CTTTAAGGAGGCGCAAAAGTTAACCGCGATGGGCAG | 3570 PBM fluorescence, median of replicate spots
33 | Table S3 B row 2473 (dsDNA) DNA 1: CCCACCCAGCAAGCCGTCCTAACCACAACAGCCCTC DNA 2: GAGGGCTGTTGTGGTTAGGACGGCTTGCTGGGTGGG | 5020 PBM fluorescence, median of replicate spots
34 | Table S3 B row 3962 (dsDNA) DNA 1: GCCCCTCTGCGGTCGCAGCCCCGCCGGGAGTGTGGC DNA 2: GCCACACTCCCGGCGGGGCTGCGACCGCAGAGGGGC | 4660 PBM fluorescence, median of replicate spots
35 | Table S3 B row 2682 (dsDNA) DNA 1: TGGAAACCACAAGTTATTCCCTGCAAGCCGTAAGCA DNA 2: TGCTTACGGCTTGCAGGGAATAACTTGTGGTTTCCA | 4300 PBM fluorescence, median of replicate spots
36 | Table S3 B row 1266 (dsDNA) DNA 1: AGAAAACCACATTCAATTCTCTTTACACAGGGTGTT DNA 2: AACACCCTGTGTAAAGAGAATTGAATGTGGTTTTCT | 3040 PBM fluorescence, median of replicate spots
37 | Table S3 B row 75 (dsDNA) DNA 1: GCGTCCTTTGCGGTCTTTTGTCCACGTTCGGGTCAA DNA 2: TTGACCCGAACGTGGACAAAAGACCGCAAAGGACGC | 4170 PBM fluorescence, median of replicate spots
38 | Table S3 B row 2125 (dsDNA) DNA 1: CAGGCTGCGGTTGAAATGCATCAGCTCTTTCGTGCC DNA 2: GGCACGAAAGAGCTGATGCATTTCAACCGCAGCCTG | 4740 PBM fluorescence, median of replicate spots
39 | Table S3 B row 646 (dsDNA) DNA 1: GCTCAAACAATAACCACAACACTTCATGCCTCTCTC DNA 2: GAGAGAGGCATGAAGTGTTGTGGTTATTGTTTGAGC | 5040 PBM fluorescence, median of replicate spots
40 | Table S3 B row 1215 (dsDNA) DNA 1: ACAGAGAAACCACAGCCCTGAGCCTCTTCATGACAT DNA 2: ATGTCATGAAGAGGCTCAGGGCTGTGGTTTCTCTGT | 4430 PBM fluorescence, median of replicate spots
41 | Table S3 B row 2281 (dsDNA) DNA 1: ACCCCAAACCCACAAACCCACCTGAAGGAACCAACT DNA 2: AGTTGGTTCCTTCAGGTGGGTTTGTGGGTTTGGGGT | 5110 PBM fluorescence, median of replicate spots
42 | Table S3 B row 2419 (dsDNA) DNA 1: GGCTACAGCAACCGCAAGGCATCACGGAGGTCGTAG DNA 2: CTACGACCTCCGTGATGCCTTGCGGTTGCTGTAGCC | 5220 PBM fluorescence, median of replicate spots
43 | Table S3 B row 905 (dsDNA) DNA 1: CCTCTGCGGTCTCTGCAGCCGTTTGCATTTGCTGAA DNA 2: TTCAGCAAATGCAAACGGCTGCAGAGACCGCAGAGG | 4320 PBM fluorescence, median of replicate spots
44 | Table S3 B row 1521 (dsDNA) DNA 1: CTCCGCCTTTCACCTCCTAGTAACCGCCCTCCCTTG DNA 2: CAAGGGAGGGCGGTTACTAGGAGGTGAAAGGCGGAG | 2240 PBM fluorescence, median of replicate spots
45 | Table S3 B row 2863 (dsDNA) DNA 1: CCGCCCTGTGGTTTTGGAGCCCTTGCTCCCGGCGCA DNA 2: TGCGCCGGGAGCAAGGGCTCCAAAACCACAGGGCGG | 4640 PBM fluorescence, median of replicate spots
